Experimental data reported in patent publication US20080182978A1, “ANTI-NGF ANTIBODIES AND METHODS USING SAME” (RINAT NEUROSCIENCE CORP, priority 2002, published 2008).
Entries after “also recorded” stand apart in the source; their conditions may differ.

Legend:
human NGF = human NGF (Homo sapiens, UniProt P01138); assay: BIAcore screening assay of Fab library clones (koff); type: binding; conditions: Table 8: CDR L3 H3 combination mutations, H19-L129 template (H1H2L1L2 matured)
How it was run: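 Fab library clones expressed in E. coli (1 mM IPTG, 5 h, 30° C), lysed by freeze-thaw in HBS-EP; lysates injected at 50 μl/min for 2 min over CM5-immobilised human NGF (500-600 RU). Single-exponential koff fitted from 10-15 min dissociation; Fab presence checked via anti-penta-His channel.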

[1] = biological target: macrophage stimulating protein (MSP) (Homo sapiens, UniProt P26927); assay: Mouse E17/18 trigeminal neuron survival assay, MSP; type: cell-based; conditions: MSP 600 pM; antibody up to 200 nM; 48 hours
macrophage stimulating protein (MSP), sequence (P26927 19-711, species assumed): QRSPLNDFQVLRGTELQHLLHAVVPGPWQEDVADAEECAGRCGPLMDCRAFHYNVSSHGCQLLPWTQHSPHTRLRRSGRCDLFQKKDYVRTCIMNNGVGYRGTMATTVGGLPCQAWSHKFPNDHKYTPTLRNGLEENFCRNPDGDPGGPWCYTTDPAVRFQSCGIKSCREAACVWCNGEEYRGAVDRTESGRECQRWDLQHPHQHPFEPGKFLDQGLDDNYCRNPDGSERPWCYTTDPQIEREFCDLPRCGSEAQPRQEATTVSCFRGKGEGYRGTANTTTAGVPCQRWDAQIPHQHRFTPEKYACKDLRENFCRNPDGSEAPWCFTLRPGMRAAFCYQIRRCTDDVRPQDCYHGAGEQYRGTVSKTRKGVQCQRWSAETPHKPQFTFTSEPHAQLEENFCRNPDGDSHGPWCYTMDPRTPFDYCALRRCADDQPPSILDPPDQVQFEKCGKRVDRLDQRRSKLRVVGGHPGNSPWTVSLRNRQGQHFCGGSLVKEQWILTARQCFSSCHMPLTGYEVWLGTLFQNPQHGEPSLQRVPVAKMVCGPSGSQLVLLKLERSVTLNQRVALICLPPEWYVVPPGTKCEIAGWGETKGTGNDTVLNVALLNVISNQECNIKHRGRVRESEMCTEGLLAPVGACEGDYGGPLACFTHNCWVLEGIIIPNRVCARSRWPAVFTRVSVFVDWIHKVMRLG
Procedure: The ability of antibody E3 to specifically block NGF activity was evaluated by measurement of the capacity of the antibody to inhibit survival of mouse E17/18 trigeminal neurons in vitro in the presence of saturating concentrations of NGF, the NGF-related neurotrophin NT3, or the NGF-unrelated neurotrophic factor, macrophage stimulating protein (MSP). The survival of mouse E17/18 trigeminal neurons is a sensitive assay to evaluate the NGF-blocking activity of anti-NGF antagonist antibodies because NGF is required to support survival of these neurons at higher concentrations than the level of NGF required to support survival of E13.5 TG neurons).
The survival assay was conducted as follows: time mated pregnant Swiss Webster female mice were euthanised by CO2 inhalation. The uterine horns were removed and the embryos (at embryonic day 17 or 18) were extracted and decapitated. The trigeminal and nodose ganglia were dissected and cleaned. The ganglia were then trypsinised, mechanically dissociated and plated at a density of 100-300 cells per well in defined, serum-free medium in 4-well plates (Greiner) coated with poly-L-ornithine and laminin.
E17/18 trigeminal neurons were grown either without added neurotrophic factors (negative control) or in the presence of saturating concentrations of human NGF (400 pM and 15 pM) (positive control); NT3 (400 pM); or MSP (600 pM). […]

human NGF, sequence (P01138 122-241): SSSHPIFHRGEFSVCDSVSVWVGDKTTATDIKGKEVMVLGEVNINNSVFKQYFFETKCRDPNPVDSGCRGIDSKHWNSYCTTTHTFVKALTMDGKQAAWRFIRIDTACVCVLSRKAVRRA

B1: E3: humanized, affinity matured anti-NGF antagonist antibody; variable regions SEQ ID NO:1 and 2; human IgG2a (A330P331 to S330S331), kappa (antibody, V domains shown)
VH: QVQLQESGPGLVKPSETLSLTCTVSGFSLIGYDLNWIRQPPGKGLEWIGIIWGDGTTDYNSAVKSRVTISKDTSKNQFSLKLSSVTAADTAVYYCARGGYWYATSYYFDYWGQGTLVTVS
VL: DIQMTQSPSSLSASVGDRVTITCRASQSISNNLNWYQQKPGKAPKLLIYYTSRFHSGVPSRFSGSGSGTDFTFTISSLQPEDIATYYCQQEHTLPYTFGQGTKLEIKRT
modifications: human IgG2a constant (A330S/P331S) and kappa constant missing
koff (human NGF): 1.2e-05 s⁻¹ | survival of E17/18 trigeminal neurons promoted by MSP [1]: had no effect; also recorded: did not inhibit
